Experiments:
[1] = molecular target: GLP-1 receptor expressed on the transgenic cell line GLP1R_cAMP/luc; experiment: cell-based or functional assay
[2] = molecular target: T1, human GLP-1 receptor (Abcam) (human, UniProt P43220 24-145, limits assumed); experiment: SPR (Proteon XPR36), human GLP-1 receptor immobilised
T1 construct: Bought recombinant protein
Procedure: (§1) Binding affinity of each TAs were evaluated by SPR (Proteon XPR36, BIO-RAD) and based on the protocol modified from general procedure of SPR analysis in published paper. Specifically, the proteon GLC chip (BIO-RAD, USA) was stabilized with PBST (PBS+0.01% tween 20, pH 7.4). Stabilized GLC chip was activated with 150 uL of Sulfo-NHS (0.001 M) and EDC (0.04M) (1:1) followed by immobilization of 10 ug/mL human GLP-1 receptor (Abcam, UK) diluted in acetate buffer (pH 5.0). After immobilization level was recorded and deactivation by 1 M Ethanolamine-HCl (pH 8.5), different concentrations of Dulaglutide and GLP-1-gFc (0, 1.25, 2.5, 5, 10 uM) were injected to each channel of chip. Chip was regenerated by 25 mM NaOH and checked ‘Zero base’ before repeated analysis of same molecule or other TA. All binding sesorgrams were collected, processed, and analyzed using the integrated Proteon Manager software (Bio-RAD, USA). Binding curves were fitted using the Laugmuir model.

[3] = molecular target: T1, human GLP-1 receptor (Abcam); experiment: SPR (Proteon XPR36), human GLP-1 receptor immobilised, analyte 0-10 uM, Langmuir fit
Procedure: as §1

B1: GLP-1(A2G)-hyFc9 (Fc fusion)
chain: HGEGTFTSDVSSYLEGQAAKEFIAWLVKGRGAKATTAPATTRNTGRGGEEKKKEKEKEEQEERETKTPECPSHTQPLGVFLFPPKPKDTLMISRTPEVTCVVVDVSQEDPEVQFNWYVDGVEVHNAKTKPREEQFNSTYRVVSVLTVLHQDWLNGKEYKCKVSNKGLPSSIEKTISKAKGQPREPQVYTLPPSQEEMTKNQVSLTCLVKGFYPSDIAVEWESNGQPENNYKTTPPVLDSDGSFFLYSRLTVDKSRWQEGNVFSCSVMHEALHNHYTQKSLSLSLGK
modifications: O-glycosylation at the IgD hinge region (positions not stated)
notes: also called GLP-1-gFc; GLP-1-hyFc9
EC50, cAMP-dependent luciferase reporter in GLP-1R over-expressing cells [1]: 0.0233 nM | fold difference of EC50 against Dulaglutide, cAMP-dependent luciferase reporter [1]: 3.5 fold | fold koff against Dulaglutide [2]: ~10 fold | fold kon against Dulaglutide [2]: 1.7 fold | Kd [3]: 16 µM

Source: patent US20200282021A1 (GENEXINE, published 2020)
